Columns and labels:
Experiment in all cases: two-hybrid; LexA-Ubx variant (pLexA) and B42-partner (pB42) co-transformed into S. cerevisiae EGY48 carrying p8op-LacZ; blue/white colonies on X-gal and liquid β-galactosidase (ONPG) assay after galactose induction at 30°C, reported in Miller units
[1] = target: UbxIVa Pro4 (Drosophila melanogaster)
[2] = target: UbxIb Δ103–216 (Drosophila melanogaster) (UniProt P83949)
[3] = target: UbxIb N103 Pro4 (Drosophila melanogaster) (UniProt P83949)
UbxIb N103 Pro4 (Drosophila melanogaster), sequence (P83949 other isoform, or with tags, fused parts or gaps amino acids 2–102 removed (N103) | A226P | Q233P): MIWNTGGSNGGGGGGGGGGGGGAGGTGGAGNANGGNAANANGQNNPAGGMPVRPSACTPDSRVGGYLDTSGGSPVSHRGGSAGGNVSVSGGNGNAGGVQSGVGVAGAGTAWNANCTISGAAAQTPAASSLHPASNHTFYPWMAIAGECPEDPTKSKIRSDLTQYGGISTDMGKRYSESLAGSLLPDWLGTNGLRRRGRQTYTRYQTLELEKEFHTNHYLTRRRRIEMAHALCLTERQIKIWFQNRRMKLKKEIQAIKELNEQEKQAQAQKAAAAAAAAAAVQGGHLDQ

Ribosomal protein L22, sequence (P50887 whole entry): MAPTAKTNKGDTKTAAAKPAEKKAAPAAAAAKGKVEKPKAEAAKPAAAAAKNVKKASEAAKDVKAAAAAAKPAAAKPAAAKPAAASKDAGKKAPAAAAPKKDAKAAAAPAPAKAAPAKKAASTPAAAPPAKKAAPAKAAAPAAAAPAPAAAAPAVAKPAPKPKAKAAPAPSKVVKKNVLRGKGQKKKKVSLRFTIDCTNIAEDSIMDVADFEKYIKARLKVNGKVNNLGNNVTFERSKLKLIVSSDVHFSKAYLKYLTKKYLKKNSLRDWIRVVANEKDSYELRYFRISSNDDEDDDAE
Dishevelled, sequence (P51140 whole entry): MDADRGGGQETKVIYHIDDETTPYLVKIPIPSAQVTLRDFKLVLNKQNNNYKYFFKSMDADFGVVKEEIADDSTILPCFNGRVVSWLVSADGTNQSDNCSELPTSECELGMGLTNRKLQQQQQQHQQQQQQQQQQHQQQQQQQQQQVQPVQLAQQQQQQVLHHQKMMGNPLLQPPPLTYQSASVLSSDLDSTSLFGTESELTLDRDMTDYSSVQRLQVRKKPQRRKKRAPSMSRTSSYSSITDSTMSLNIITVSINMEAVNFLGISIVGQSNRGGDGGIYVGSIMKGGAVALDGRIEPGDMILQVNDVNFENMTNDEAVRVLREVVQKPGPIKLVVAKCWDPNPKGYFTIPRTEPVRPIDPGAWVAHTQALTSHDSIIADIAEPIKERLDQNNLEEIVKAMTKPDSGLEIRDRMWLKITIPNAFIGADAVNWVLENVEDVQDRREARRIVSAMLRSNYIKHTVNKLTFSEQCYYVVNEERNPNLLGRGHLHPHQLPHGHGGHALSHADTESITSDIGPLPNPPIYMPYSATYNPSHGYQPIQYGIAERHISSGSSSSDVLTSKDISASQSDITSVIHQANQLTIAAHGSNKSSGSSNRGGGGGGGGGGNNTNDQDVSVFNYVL
UbxIb Δ103–216 (Drosophila melanogaster), sequence (P83949 other isoform, or with tags, fused parts or gaps mutant): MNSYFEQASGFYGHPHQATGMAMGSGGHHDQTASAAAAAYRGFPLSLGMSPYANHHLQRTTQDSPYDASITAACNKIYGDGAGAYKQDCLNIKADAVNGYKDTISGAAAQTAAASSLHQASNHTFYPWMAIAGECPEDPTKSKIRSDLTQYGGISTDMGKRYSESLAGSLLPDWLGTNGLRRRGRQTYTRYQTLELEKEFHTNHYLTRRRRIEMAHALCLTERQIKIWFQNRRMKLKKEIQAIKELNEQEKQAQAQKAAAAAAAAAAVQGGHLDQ
14-3-3ε, sequence (P92177 whole entry): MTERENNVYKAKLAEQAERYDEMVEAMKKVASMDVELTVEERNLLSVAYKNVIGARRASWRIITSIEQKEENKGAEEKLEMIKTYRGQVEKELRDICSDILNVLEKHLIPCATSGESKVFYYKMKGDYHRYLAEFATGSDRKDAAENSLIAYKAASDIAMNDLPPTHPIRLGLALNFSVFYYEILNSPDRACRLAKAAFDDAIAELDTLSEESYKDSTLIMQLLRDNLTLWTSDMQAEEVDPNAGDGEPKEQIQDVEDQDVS

“Dishevelled (from UniProt P51140 1-623) (natural protein)” showed a percent of reporter signal lost relative to UbxIb Pro4 [1] of over 59%.
Work on Apontic (natural protein) yielded a percent of reporter signal lost relative to UbxIb Pro4 [2] of over 59%, a percent of reporter signal lost relative to UbxIb Pro4 [3] of over 59% and a percent of reporter signal lost relative to UbxIb Pro4 [1] of over 59%.
“Ribosomal protein L22 (from UniProt P50887 1-299) (natural protein)” showed a percent of reporter signal lost relative to UbxIb Pro4 [1] of over 59%.
“14-3-3ε (from UniProt P92177 1-262) (natural protein)” showed a percent of reporter signal lost relative to UbxIb Pro4 [1] of over 59%.

Reference: paper PMC4186791
